Data on two molecules can be found in patent US8153410B2, “Alternate morpheein forms of allosteric proteins as a target for the development of bioactive molecules” (Fox Chase Cancer Center, priority 2003, dated 2012).

Where two headings read alike, the source gives them in different places. Marks after values point to notes of the source that are not given here.

In one data set the target is T1, pea PBGS (Pisum sativum, UniProt P30124).
T1 sequence (P30124 69-398 limits assumed): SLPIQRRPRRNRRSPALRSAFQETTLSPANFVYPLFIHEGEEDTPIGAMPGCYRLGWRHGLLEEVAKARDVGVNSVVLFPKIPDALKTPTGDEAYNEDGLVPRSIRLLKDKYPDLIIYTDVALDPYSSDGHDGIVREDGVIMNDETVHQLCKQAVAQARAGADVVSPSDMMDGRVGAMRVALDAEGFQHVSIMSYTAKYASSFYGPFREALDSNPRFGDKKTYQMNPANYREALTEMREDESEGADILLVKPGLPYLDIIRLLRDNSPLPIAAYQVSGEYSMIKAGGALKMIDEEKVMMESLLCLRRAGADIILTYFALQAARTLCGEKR
Conditions: read-out: Kd for the allosteric magnesium of pea PBGS; cited from earlier work.

The test system of data set [1] is human PBGS. In words: kinetic characterization (Km, Vmax, specific activity) of human PBGS variants with substrate ALA. In kind it is biochemical. The protocol:
(§1) All kinetic determinations were carried out in 0.1 M bis-tris propane, 10 mM 2-mercaptoethanol, 10 μM Zn. For the pH rate profiles, the reported pH reflects the assay pH after the addition of 10 mM ALA-HCl. For Km and Vmax determinations, concentrations of ALA were 10 μM, 30 μM, 100 μM, 300 μM, 1 mM, 3 mM, and 10 mM and were each done in duplicate. […] All assays were at 37° C. for a fixed time using Ehrlich's reagent to determine porphobilinogen formed.
(§2) The kinetic parameters Km and Vmax of the S300 purified pools were determined at pH 7 and at pH 9 (Table 3 contains data for hetero-hexamers (Pool I) initially at 70% Leu and 30% Phe and for hetero-octamers (Pool II) initially at 30% Leu and 70% Phe). […] With the exception of the trace amount of octamer present for Pool I that is detected at pH 9, all the kinetic values are well determined (see Table 3). […] The factors that govern equilibration of human PBGS heteromers under assay conditions remain to be elucidated.
(§3) Km1 and Km2 (both mM) are interpreted as the Km for the octamer and hexamer, respectively.
(§4) Using freshly prepared hetero-oligomers of WT+F12L, the Pool I and Pool II proteins were separated chromatographically and then dialyzed for 24 hours at pH 7 in the presence of 10 mM ALA. Following dialysis, the re-equilibrated hetero-oligomers were again separated into their hexameric and octameric components by chromatography on a Mono-Q column. The separated proteins were characterized for their specific activity and for their Phe12 and Leu12 content. The specific activity of hexamer and octamer are dramatically different with hexamer showing optimal activity at pH 9 and the activity of octamer is maximal at pH 7 (Table 4). […] Following chromatographic separation, the proteins were called Pool I hexamer, Pool I octamer, Pool II hexamer, and Pool II octamer and are described below. The peak to elute first on the Mono-Q column runs comparably to the F12L mutant, which is the hexamer. The hexameric structure is substantiated by native gel electrophoresis and by specific activity at pH 7 and pH 9 (FIG. 26A and Table 4). The second peak to elute runs comparably to the WT human PBGS, which is the octamer. The octameric structure is substantiated by native gel electrophoresis and specific activity at pH 7 and pH 9 (FIG. 26A and Table 4). Consistent with the documented characteristics of human PBGS hexamers and octamers, Pool I hexamer and Pool II hexamer have very low activity at pH 7 and considerable activity at pH 9. Pool I octamer and Pool II octamer both show substantially higher activity at pH 7 than at pH 9.

Data set [2] deals with T2, human PBGS (Homo sapiens, UniProt P13716, C162A/K59N).
T2 construct: made in house; host or cells: E. coli BLR(DE3)
T2 sequence (P13716 1-330 K59N/C162A): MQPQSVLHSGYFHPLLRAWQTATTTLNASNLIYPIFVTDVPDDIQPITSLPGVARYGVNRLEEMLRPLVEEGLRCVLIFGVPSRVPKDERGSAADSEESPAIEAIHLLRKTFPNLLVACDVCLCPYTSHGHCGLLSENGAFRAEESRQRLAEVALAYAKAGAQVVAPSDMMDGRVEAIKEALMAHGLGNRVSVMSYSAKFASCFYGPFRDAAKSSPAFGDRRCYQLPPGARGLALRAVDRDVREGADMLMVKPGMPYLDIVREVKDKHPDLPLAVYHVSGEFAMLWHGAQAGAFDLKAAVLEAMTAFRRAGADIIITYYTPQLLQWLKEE
The data set is described as above. The note with it: pH 9; Table 1; hexamer component. It is filed as biochemical. The protocol:
as §1, §2, §3, §4

Data set [3] concerns human PBGS. In words: temperature dependence (Arrhenius plots) of hetero-hexamer to hetero-octamer conversion and of substrate turnover. In kind it is biochemical. Conditions: pH 7.0, 10 mM ALA-HCl. The source says: To determine the free energy of activation for the conversion of hetero-hexamers to hetero-octamers, we took advantage of the dramatic differences in the activity of octameric (high activity) and hexameric (low activity) human PBGS at pH 7.0 (3, 5). Because of this difference, the transition from purified hetero-hexamers to a mixture of hetero-hexamers and hetero-octamers under turnover conditions is accompanied by a progressive increase in the specific activity; this process was monitored at several temperatures. Starting with purified hetero-hexamers, (FIG. 34a) the specific activity increased, which is fit to a first-order exponential as exemplified in FIG. 35b (5). […] The time-courses for conversion of hetero-hexamer to hetero-octamer were monitored by periodically removing aliquots from the incubations and immediately quantifying porphobilinogen using Ehrlich's reagent and calculating specific activities based on the total incubation time. […] An activation energy for hetero-hexamer to hetero-octamer conversion (Ea=63±5 kJ/mol) was determined from the slope of the plot. […] However, we previously monitored this process at 5 μg/ml and 0.9 mg/ml, two widely different enzyme concentrations, by specific activity increase and dynamic light scattering respectively. […]

Take `[Mg+2]` [magnesium]: the Kd at pea PBGS is 2500 µM.

B1: WT: wild type human PBGS (parent N59/C162A), octameric, expressed in E. coli (protein)
chain: MQPQSVLHSGYFHPLLRAWQTATTTLNASNLIYPIFVTDVPDDIQPITSLPGVARYGVNRLEEMLRPLVEEGLRCVLIFGVPSRVPKDERGSAADSEESPAIEAIHLLRKTFPNLLVACDVCLCPYTSHGHCGLLSENGAFRAEESRQRLAEVALAYAKAGAQVVAPSDMMDGRVEAIKEALMAHGLGNRVSVMSYSAKFASCFYGPFRDAAKSSPAFGDRRCYQLPPGARGLALRAVDRDVREGADMLMVKPGMPYLDIVREVKDKHPDLPLAVYHVSGEFAMLWHGAQAGAFDLKAAVLEAMTAFRRAGADIIITYYTPQLLQWLKEE
As to B1, the “Specific activities before and after substrate induced disproportionation” value in the data set on human PBGS [1] (pH 7) stood at 56.9 µmol/h/mg; in the data set with human PBGS [1] (pH 9), 13.1 µmol/h/mg. Besides, the Km1 with human PBGS [1] (pH 7, Table 1) turned out to be 0.25 ± 0.01 mM; in the data set with human PBGS [1] (pH 9, Table 1), 0.015 ± 0.001 mM. For the same molecule, the Vmax1 in the data set with human PBGS [1] (pH 7, Table 1) amounted to 55.5 ± 0.2; in the data set on human PBGS [1] (pH 7, Table 3) it was 55.5 ± 0.2 µmol/h/mg; in the data set on human PBGS [1] (pH 9, Table 1), 8.16 ± 0.13; in the data set with human PBGS [1] (pH 9, Table 3) it was 8.16 ± 0.13 µmol/h/mg. Also, the Km with human PBGS [1] (pH 7, Table 3, read-out: Km1 (Km for the octamer)) worked out at 250 ± 10 µM; with human PBGS [1] (pH 9, Table 3, read-out: Km1 (Km for the octamer)), 15 µM; in the data set on human PBGS [1] (pH 9, Table 3, read-out: Km2 (Km for the hexamer)), 4460 ± 800 µM. The Vmax2 in the data set on human PBGS [1] (pH 9, Table 3) amounted to 6.67 ± 0.36 µmol/h/mg; with human PBGS [2], 6.67 µM/h/mg. In addition, the Km2 with human PBGS [2] was 4.46 ± 0.80^a mM. In the data set with human PBGS [3], the “activation energy for substrate turnover” value is 14.8 ± 0.24 kcal/mol.
